According to IntAct's records for PubMed 31515488:

B1: Protein N-lysine methyltransferase METTL21A (Homo sapiens), Q8WXB1 (parent)
chain: MALVPYEETTEFGLQKFHKPLATFSFANHTIQIRQDWRHLGVAAVVWDAAIVLSTYLEMGAVELRGRSAVELGAGTGLVGIVAALLGAHVTITDRKVALEFLKSNVQANLPPHIQTKTVVKELTWGQNLGSFSPGEFDLILGADIIYLEETFTDLLQTLEHLCSNHSVILLACRIRYERDNNFLAMLERQFTVRKVHYDPEKDVHIYEAQKRNQKEDL
B2: Four and a half LIM domains protein 2 (Homo sapiens), Q14192 (parent)
chain: MTERFDCHHCNESLFGKKYILREESPYCVVCFETLFANTCEECGKPIGCDCKDLSYKDRHWHEACFHCSQCRNSLVDKPFAAKEDQLLCTDCYSNEYSSKCQECKKTIMPGTRKMEYKGSSWHETCFICHRCQQPIGTKSFIPKDNQNFCVPCYEKQHAMQCVQCKKPITTGGVTYREQPWHKECFVCTACRKQLSGQRFTARDDFAYCLNCFCDLYAKKCAGCTNPISGLGGTKYISFEERQWHNDCFNCKKCSLSLVGRGFLTERDDILCPDCGKDI
partner: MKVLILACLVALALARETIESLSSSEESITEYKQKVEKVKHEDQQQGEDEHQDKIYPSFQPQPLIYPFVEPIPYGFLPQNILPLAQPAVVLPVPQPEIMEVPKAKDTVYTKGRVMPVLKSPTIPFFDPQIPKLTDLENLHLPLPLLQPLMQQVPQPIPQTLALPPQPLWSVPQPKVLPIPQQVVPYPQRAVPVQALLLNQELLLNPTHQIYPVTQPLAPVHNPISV
B3: Zinc finger protein RFP (Homo sapiens), P14373 (parent)
chain: MASGSVAECLQQETTCPVCLQYFAEPMMLDCGHNICCACLARCWGTAETNVSCPQCRETFPQRHMRPNRHLANVTQLVKQLRTERPSGPGGEMGVCEKHREPLKLYCEEDQMPICVVCDRSREHRGHSVLPLEEAVEGFKEQIQNQLDHLKRVKDLKKRRRAQGEQARAELLSLTQMEREKIVWEFEQLYHSLKEHEYRLLARLEELDLAIYNSINGAITQFSCNISHLSSLIAQLEEKQQQPTRELLQDIGDTLSRAERIRIPEPWITPPDLQEKIHIFAQKCLFLTESLKQFTEKMQSDMEKIQELREAQLYSVDVTLDPDTAYPSLILSDNLRQVRYSYLQQDLPDNPERFNLFPCVLGSPCFIAGRHYWEVEVGDKAKWTIGVCEDSVCRKGGVTSAPQNGFWAVSLWYGKEYWALTSPMTALPLRTPLQRVGIFLDYDAGEVSFYNVTERCHTFTFSHATFCGPVRPYFSLSYSGGKSAAPLIICPMSGIDGFSGHVGNHGHSMETSP
partner: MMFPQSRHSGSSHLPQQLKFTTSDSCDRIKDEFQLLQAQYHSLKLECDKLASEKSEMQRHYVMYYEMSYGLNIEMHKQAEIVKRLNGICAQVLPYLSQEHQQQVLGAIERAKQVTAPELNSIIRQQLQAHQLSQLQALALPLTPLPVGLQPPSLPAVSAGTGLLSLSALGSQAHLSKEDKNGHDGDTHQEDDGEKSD
B4: AP-4 complex subunit beta-1 (Homo sapiens), Q9Y6B7 (parent)
chain: MPYLGSEDVVKELKKALCNPHIQADRLRYRNVIQRVIRYMTQGLDMSGVFMEMVKASATVDIVQKKLVYLYMCTYAPLKPDLALLAINTLCKDCSDPNPMVRGLALRSMCSLRMPGVQEYIQQPILNGLRDKASYVRRVAVLGCAKMHNLHGDSEVDGALVNELYSLLRDQDPIVVVNCLRSLEEILKQEGGVVINKPIAHHLLNRMSKLDQWGQAEVLNFLLRYQPRSEEELFDILNLLDSFLKSSSPGVVMGATKLFLILAKMFPHVQTDVLVRVKGPLLAACSSESRELCFVALCHVRQILHSLPGHFSSHYKKFFCSYSEPHYIKLQKVEVLCELVNDENVQQVLEELRGYCTDVSADFAQAAIFAIGGIARTYTDQCVQILTELLGLRQEHITTVVVQTFRDLVWLCPQCTEAVCQALPGCEENIQDSEGKQALIWLLGVHGERIPNAPYVLEDFVENVKSETFPAVKMELLTALLRLFLSRPAECQDMLGRLLYYCIEEEKDMAVRDRGLFYYRLLLVGIDEVKRILCSPKSDPTLGLLEDPAERPVNSWASDFNTLVPVYGKAHWATISKCQGAERCDPELPKTSSFAASGPLIPEENKERVQELPDSGALMLVPNRQLTADYFEKTWLSLKVAHQQVLPWRGEFHPDTLQMALQVVNIQTIAMSRAGSRPWKAYLSAQDDTGCLFLTELLLEPGNSEMQISVKQNEARTETLNSFISVLETVIGTIEEIKS
partner: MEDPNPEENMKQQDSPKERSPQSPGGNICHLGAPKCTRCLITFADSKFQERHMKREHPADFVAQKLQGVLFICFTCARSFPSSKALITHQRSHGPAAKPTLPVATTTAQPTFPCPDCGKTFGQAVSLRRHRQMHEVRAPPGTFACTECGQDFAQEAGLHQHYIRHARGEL
B5: H/ACA ribonucleoprotein complex subunit 3 (Homo sapiens), Q9NPE3 (parent)
chain: MFLQYYLNEQGDRVYTLKKFDPMGQQTCSAHPARFSPDDKYSRHRITIKKRFKVLMTQQPRPVL
partner: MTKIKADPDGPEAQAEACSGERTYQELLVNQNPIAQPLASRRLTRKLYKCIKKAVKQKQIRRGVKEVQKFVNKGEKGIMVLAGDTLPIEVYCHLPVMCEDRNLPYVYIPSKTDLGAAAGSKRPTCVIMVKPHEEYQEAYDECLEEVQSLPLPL
B6: Interleukin-1 receptor-associated kinase 4 (Homo sapiens), Q9NWZ3 (parent)
chain: MNKPITPSTYVRCLNVGLIRKLSDFIDPQEGWKKLAVAIKKPSGDDRYNQFHIRRFEALLQTGKSPTSELLFDWGTTNCTVGDLVDLLIQNEFFAPASLLLPDAVPKTANTLPSKEAITVQQKQMPFCDKDRTLMTPVQNLEQSYMPPDSSSPENKSLEVSDTRFHSFSFYELKNVTNNFDERPISVGGNKMGEGGFGVVYKGYVNNTTVAVKKLAAMVDITTEELKQQFDQEIKVMAKCQHENLVELLGFSSDGDDLCLVYVYMPNGSLLDRLSCLDGTPPLSWHMRCKIAQGAANGINFLHENHHIHRDIKSANILLDEAFTAKISDFGLARASEKFAQTVMTSRIVGTTAYMAPEALRGEITPKSDIYSFGVVLLEIITGLPAVDEHREPQLLLDIKEEIEDEEKTIEDYIDKKMNDADSTSVEAMYSVASQCLHEKKNKRPDIKKVQQLLQEMTAS

Variants of: B1
Details: with FAM200C

Row | effect of a mutation on the interaction | Variant
1 | disrupting interaction strength | A209P

Variants of: B2
Details: with casb_human CSN2, P05814

Row | effect of a mutation on the interaction | Variant
2 | with no effect | A37S
3 | with no effect | N95K

Variants of: B3
Details: with tle5_human TLE5, Q08117

Row | effect of a mutation on the interaction | Variant
4 | with no effect | N355S

Variants of: B4
Details: with zn576_human ZNF576, Q9H609

Row | effect of a mutation on the interaction | Variant
5 | with no effect | L480S

Variants of: B5
Details: with nhp2_human NHP2, Q9NX24

Row | effect of a mutation on the interaction | Variant
6 | with no effect | D12H

Variants of: B6
Details: with myd88_human MYD88, Q99836
Chain of myd88_human MYD88, Q99836 (Q99836 whole entry): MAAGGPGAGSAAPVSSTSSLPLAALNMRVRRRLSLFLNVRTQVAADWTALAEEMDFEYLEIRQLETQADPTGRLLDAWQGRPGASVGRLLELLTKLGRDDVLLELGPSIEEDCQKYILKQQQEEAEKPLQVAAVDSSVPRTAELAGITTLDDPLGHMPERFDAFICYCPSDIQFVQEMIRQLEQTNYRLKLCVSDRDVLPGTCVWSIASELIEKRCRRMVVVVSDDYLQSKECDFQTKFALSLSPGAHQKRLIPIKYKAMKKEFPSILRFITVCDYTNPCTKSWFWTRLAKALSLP

Row | effect of a mutation on the interaction | Variant
7 | with no effect | R20W
